Measured values taken from publication PMC5662769, “A-ZIP53, a dominant negative reveals the molecular mechanism of heterodimerization between bZIP53, bZIP10 and bZIP25 involved in Arabidopsis seed maturation” (Scientific Reports, 2017).

How the values were obtained:
[1] = CD thermal denaturation; protein alone, 2 µM dimer, ellipticity at 222 nm, heated from 6–85 °C, two-state fit; KD at 25 °C calculated from ΔGDi; dimer to monomers; conditions: other: CD thermal denaturation
[2] = biological target: bZIP10 DNA binding domain and leucine zipper region (V216-S301) (Arabidopsis thaliana); test: native MS; ESI-MS in unbuffered MS grade water, 2 µM homodimer, 4 µM heterodimer mixtures, samples kept at 23 ± 2 °C, ion spray interface temperature switched off, declustering potential 10 V
[3] = biological target: bZIP10 DNA binding domain and leucine zipper region (V216-S301) (Arabidopsis thaliana); test: CD thermal denaturation; protein alone, 2 µM dimer, ellipticity at 222 nm, heated from 6–85 °C, two-state fit; KD at 25 °C calculated from ΔGDi; dimer to monomers
[4] = biological target: T1, bZIP25 DNA binding domain and leucine zipper region (V230-S322) (Arabidopsis thaliana (Mouse-ear cress), UniProt Q9M1G6); test: CD thermal denaturation (222 nm) of equimolar mix versus sum curve, plus ESI-MS; absence of DNA; the paper concludes heterodimerization is DNA-mediated (synergistic reporter activation in protoplasts)
T1 chain: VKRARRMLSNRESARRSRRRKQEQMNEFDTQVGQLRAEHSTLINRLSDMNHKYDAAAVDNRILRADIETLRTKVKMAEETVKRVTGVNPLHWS

[5] = biological target: the molecule itself; test: native MS; ESI-MS in unbuffered MS grade water, 2 µM homodimer, 4 µM heterodimer mixtures, samples kept at 23 ± 2 °C, ion spray interface temperature switched off, declustering potential 10 V
[6] = biological target: the molecule itself; test: CD thermal denaturation; protein alone, 2 µM dimer, ellipticity at 222 nm, heated from 6–85 °C, two-state fit; KD at 25 °C calculated from ΔGDi; dimer to monomers
Q9LZP8 = test: as above; conditions: other: CD thermal denaturation
Q9SJN0 = test: as above; conditions: other: CD thermal denaturation
Q9M1G6 = test: as above; conditions: other: CD thermal denaturation

“bZIP10 DNA binding domain and leucine zipper region (V216-S301)” showed a dH (ΔHm, at Tm) [1] of -41.1 kcal/mol.

In the case of “bZIP72 DNA binding domain and leucine zipper region (D48-T150)”, the dH (ΔHm, at Tm) [1] is reported as -57.3 kcal/mol.

Molecule “bZIP10 DNA binding domain and leucine zipper region (V216-S301) (domain or fragment)” has a stoichiometry N [2] of 2 and a Kd [3] of 3 nM.

B1: bZIP53 DNA binding domain and leucine zipper region (Y18-D116) (domain or fragment, Arabidopsis thaliana, UniProt Q9LZP8 18-116, looked up)
chain: YATVTDERKRKRMISNRESARRSRMRKQKQLGDLINEVTLLKNDNAKITEQVDEASKKYIEMESKNNVLRAQASELTDRLRSLNSVLEMVEEISGQALD
notes: An internal HindIII site of the amplicon was destroyed by site-directed mutagenesis; Measured monomer mass 12957 Da; In the protoplast reporter assays the full-length protein was expressed from a plasmid; also called basic leucine zipper 53; source: E. coli BL21 (DE-3), HPLC purified
For B1, the binding result [4] was “no binding”, the “stoichiometry N” value [5] was 2 and the Kd [6] was 50 nM. The dH (ΔHm, at Tm) (Q9LZP8) was -35.5 kcal/mol.

B2: bZIP39 DNA binding domain and leucine zipper region (V351-L442) (protein)
chain: VEKVVERRQRRMIKNRESAARSRARKQAYTVELEAELNQLKEENAQLKHALAELERKRKQQYFESLKSRAQPKLPKSNGRLRTLMRNPSCPL
Work on B2 yielded a dH (ΔHm, at Tm) (Q9SJN0) of -43.2 kcal/mol.

B3: bZIP25 DNA binding domain and leucine zipper region (V230-S322) (domain or fragment, Arabidopsis thaliana, UniProt Q9M1G6 230-322, looked up)
chain: T1 chain
notes: In the protoplast reporter assays the full-length protein was expressed from a plasmid; source: E. coli BL21 (DE-3), HPLC purified
For B3, the “stoichiometry N” value [5] was 2, the Kd [6] was 0.05 nM and the dH (ΔHm, at Tm) (Q9M1G6) was -55.3 kcal/mol.
